From the DeepSol protein solubility set

Assay: soluble on expression in E. coli; label from the status in PepcDB or PDB records
For “MSTENDVSEENNSELDDVEDAKQDDRRRSTTVIMTMNVTTVPATESEGVRRNGSVRRRLSKQNATIEEPISLLSISDSPSENSDTTVPCIEEHPEEGKEEEKPAESSDVSKLRPPGLAQNKLWSTSKSLSRESTGTEYSDRSGIDLRNFVDRTLHKSEEDRKQLLEFEKQLKELILDDSTQSKRFELPSSYHRMLLHRCAAWFGLDHNVTNKQTDIVVNKSEKTKIPDDNFTDYIRHDNYVEDRLKRQNTCGSRKELHHMESFGDHSTSQYGSQASLNHDLLMMRRAQSFDVAAVTGPSVIQPQSPHHVRGLPMRQLSLNCPQQSMVTAPMSGPQGHQWAPQRSFDCSNNSYLCTGKHPMMRKAESFGGMANGISHGCYEQSVPVVCGTPPSVMVHHHHHHAHIQQPPTSNYTGYQVFEEMSMPSSNYQEPGMCSPGGTYYEYVPQPVVQPQQYARPIRYMPQDYRRPQGVQYMYGPPPPQQYMQYQPMVHPEVEVIVDPVQTQPFPQVSHFVLPDQQQGYSSSHQAETANSFIKASIDGGYGSMNQDVENAEKVEEV”, the “soluble on expression in E. coli” value was “not soluble”.
With “MAHHHHHHMSIYCRLASPPVFLRALHTVSVSRDGWATVVFTDSHVVLHVEGTDENMTATCTLPKNLFAEYAVVETRFALHIPTLIDALLMLG” the “soluble on expression in E. coli” value was “not soluble”.
In the case of “MLTNQELTAKVKEISLTYFKQSFDHEAKWNQRLRTTGGRFFPKDLHLDFNPKMAELKDFEGVILHELTHYHLYRSKRGYKHRDADFKRLLSQVGGLRYAPSVIDKKIKYYYSCQNCGQLYPRQRKIDTKKYRCGKCRGKLILKTSGNLEHHHHHH”, the “soluble on expression in E. coli” value was “soluble”.
In the case of “MKVRHPFKVVVVTGVPGVGKTTVIKELQGLAEKEGVKLHIVNFGSFMLDTAVKLGLVEDRDKIRTLPLRRQLELQREAAKRIVAEASKALGGDGVLIIDTHALVKTVAGYWPGLPKHVLDELKPDMIAVVEASPEEVAARQARDTTRYRVDIGGVEGVKRLMENARAASIASAIQYASTVAIVENREGEAAKAAEELLRLIKNL”, the “soluble on expression in E. coli” value was “soluble”.
With “MELRAVQEVLKEERLDGWLLYSFGGSNPLALEVLGLAHLHLTRRFAYLIPREGAPTLLCHAIEASLFPPLPGNRKTYHTWRGFLEGLAHLLGGMRRVALEYVPGGQIPYLSRVDGGTLDLLRGLGLELASSWPLLLLFQTWDEERLQSHRRAAAGLARAKDLALDFLRQNPEASEREVQSVLVRALEGEGLIFDHPPMVAFGKNAANPHHEPSEVRLEEGAVVLLDLWAKAPGGVYADLTWMAGKRPPEAAHRAFQAVARARDEAIAFVERAYREGRYPKGFEVDRLARKVLEEEGYGPYIRHRTGHNLGEEVHGSGPHLDDLETHDLRPLVPGLAFTVEPGVYLEAFGVRTEVDVYLHPTGPEVTTPLQEAITPL” the “soluble on expression in E. coli” value was “soluble”.
With “IDRKVLSQLRNRFLSLNDGRYARALEGMSTRQQSVLTLLPLFFHVNHPLLPGYVSGSTPAGVSHYEPDTLALAEAQRLTRSFSYKARHGNPPQPIHGLFLMGSLGTLAQADQSDMDVWVCHDSELDLEAIAELRKKCQALEAWAATMGAEAHFFLIDPQRFKSGERDSQLSSDDCGTTQHYLLLDEFYRTAIWLAGRTPMWWMVPVYEEQNYEDYTYTLLSKRFIRASEVLDLGPMSHIPATEFIGAGLWQLFKGIGSPYKSVLKLLLIEVYSSEHPRVQCLSLRFKQAVFANQLDLDELDPYVVVYRRIEEHLQARNEPERLELVRRSLYLKVNKKLTGSTRQRNIGWQRLLLARLTSEWGWDERQLTLLDSRSQWKVRQVASERRALVNELNYSYRFQTRFARAQSTADTLDARDLTILGRRLYAAYERKAGKVEFINPGIAPDLAEDTLTLVHSPDKREPGKHQWALYNGNLGIHEWANFSPIKRSRELLELLAWCHRNNVIDTTTRVALHPGTSDLSEFELFNLLGALQQSIELPLPEVSDDELLKPSAPSEILLLINVGVDPLRHHRDLNILMTTERTDSLSYAGVRENLVLTLDQITLNTWNETLVSRYDGPHALLDCMSELLGSLPTSGKQPQIRVRCFCHNRASAIAQRVEELISTAQLLLARQLNHRYLIQVQQQYHVLEIKPGQVGHVVVNSLPGLFKYLGEELPRYSPLHLDPQALDGHDLALILPLGQPECIQVFYRINEPDADLYVLDEHNSLWHQRVPYHDEQSLLTPLQRFFHSLVYRRGASLPLDD” the “soluble on expression in E. coli” value was “not soluble”.
For “MSLKRILLSSDRSGSGKTLITSAIMRALSKKYKVRGFKAGPDFIDPGYHKIATGFPSINLDLWMMGKNNVKRSLAKYGKEFDIGIIEGVMGLYDGVDTLYSTYELAKVTKTPIILIINCSNIGSTVGAIVKGLKYYRSDVSIRGVIFNKIASETHYNYCRNAVEDVEVLGYVPFDKNLEIKSRHLGLVTVEDNREVQNLIRYASELVEKYVDLDKIYEMASDEDLEIDLPEDNESNGVKRKMAIAYDPAFSFYYQENLDILKNKYELEFFSPLNNEYVEDAEAIYIGGGYPELHLNELEKSTRTKKWLKNMSYAGVKIYAECGGLMYLSKNLIDENNKNHSMTGIFDIDIKTKDKLTIGYTELEAVKENFIVNKNNVVRGHEFHVSKPISVNEKEFVFKVRIGKGIINKLDGVKSNNTVASYSHLHFSNFQLRIVFEGHHHHHH”, the “soluble on expression in E. coli” value was “not soluble”.
In the case of “GPGSMVLIECKRLPKDEYSKDYDVFLVSMPGSTNIGEATDALQKMRNTRVRIKWMCAAAKQLAKDFCSDEQKHHLLGAVEDAERYMAIERAENRQLCSQEDLDAHIAAFKGSAMILFPAECSGTDAVKRLALVLDDENTTDLERSKAHRLLSIIDDGAATEDILQGPAVMWWSGKPLDRNADFTKYVGKNEKTKITMKLAAKDAPPPPREPAVDAKTQSEMMAFYFKKQEEMKKLIEDEDLTYGNSAWADPRGLRSQLHGFDGVKYKPG”, the “soluble on expression in E. coli” value was “soluble”.
In the case of “MAHHHHHHMSSELVLAQESAWDKFGSKLKDMPFLNNFFENPILGKLFGETELAAALREMKMYDQNFKLSELMYLFEFVISKHIVESYLIGDEETLRVHCGQSAFNSLNASINERKKKKVYLDTNVLIYKNHELKGAQRMEESSPWFIFTFHTQQINCLKNANDEIIEGNIDDIREVVYTIALSKHPEPEREGLLYPYIVREFAIY”, the “soluble on expression in E. coli” value was “not soluble”.
In the case of “MPPQKYHCNVCAQDITRSIHIRCVECVDFDLCIPCFTSGASLGTHHPSHPYRIIETNSYPIFDENWGADEELLLIDACETLGLGNWADIADYVGNARTKEECRDHYLKTYIESDCYPLASVELPGPVDRIAFAARKRARIEAFQPPPIIPQKPLASTPQCHEIQGYMPGRLEFDQEYMNEAELPIKDMNFDDDLHESAKHEMQLKLTMLNIYNSRLTRRAVRKQTIFNHNLLDYRRLQANEKRMSKEERNLLNKTKAFARLLTGPDYQKFVNSYHEQITLKKQISDLQEWRQMGLTTLEQGHKYERDKTQKFLLSKASASYDKQLRHVKSFNQTTSAPFQVRDIQKIVPRKPATPTMFSASADRQLLSEDEQALCSKLQIFPKPFLALKFALISASLTSKKPFQKTDAVNLFKHLDANKVEQVYDFFHNARWIGAPT”, the “soluble on expression in E. coli” value was “soluble”.
For “MSTIIMDLCSYTRLGLTGYLLSRGVKKREINDIETVDDLAIACDSQRPSVVFINEDCFIHDASNSQRIKLIINQHPNTLFIVFMAIANVHFDEYLLVRKNLLISSKSIKPESLDDILGDILKKETTITSFLNMPTLSLSRTESSMLRMWMAGQGTIQISDQMNIKAKTVSSHKGNIKRKIKTHNKQVIYHVVRLTDNVTNGIFVNMR”, the “soluble on expression in E. coli” value was “not soluble”.
For “MGSDKIHHHHHHMTKREGGIKMAEKRRKRVVILGAAGRDFHNFNVFFRNNPEYEVVAFTATQIPDIEGRIYPPELAGELYPNGIPILPEDDLEKIIKEKDVDIVVFAYSDVSHEHVMHLASRAHSAGADFWLLGPKSTMIESKKPVVAVTAVRTGCGKSQTSRKVAQLLQEMGYKVAVIRHPMPYGDLRKQIVQRFASFEDLDRYECTIEEREEYEPYIERGMVVYAGVDYEKILREAEKEADIILWDGGNNDFPFYKPDLWIVVTDPHRPGHELTHHPGETNFRSADVIIINKIDTAYPENVQKIRENIEKVNPNAIVIEAASPIFVDKPELIKGKRVLVIEDGPTLTHGGMSYGAGYIAAKKFGAKEIVDPRPYAVGSIIETYKKYPHLSNILPAMGYGKKQIKELEETINRADADVVIMGTPVDLRRFMNLNKPAVRVKYELEEIGQPKLKDILEEWVKKCEKLKK”, the “soluble on expression in E. coli” value was “not soluble”.
In the case of “LLGNTIHVPCQPCRHGHGAPSRGLRGRPADRWPVARATPTLHVCPQNQGVGLDFVRKPEYGRLRWPAYPAGTNNDRLISMRDGGIVALPQLTDEQRAAALEKAAAARRARAELKDRLKRGGTNLTQVLKDAESDEVLGKMKVSALLEALPKVGKVKAQEIMTELEIAPTRRLRGLGDRQRKALLEKFGSA”, the “soluble on expression in E. coli” value was “soluble”.
In the case of “MTFHYPNGIPYNHHEAQSPKKQVKKKRPVEFGNRGMDFEEAINQSNQYYLLNKQAVVHKKPTPVQIVKVDYPKRSAAVIKEAYFRQASTTDYNGVYQGRYIDFEAKETKNTTSFPFKNFHQHQIDHMEQCIAQQGICFVLLWFSSLKRCFFFSGENLITHWKNQAVTGKKSMPLALIEKEGIELSFGIAPRIPYLDAVEQYIQTH”, the “soluble on expression in E. coli” value was “not soluble”.
With “MGSDKIHHHHHHMYKWGWTMTSSVAQLLSTPVEEVAGKEVPVLDKDFSLAEILKAVEKAKIDRAFLTEGNSIRGVLTFRDILDKIATVRTKQAYIGGLHGSSFMNEPVKYVEVGREVSHALETMANGMFTSVPVVGAGGVVEGGITRFELARLVKDLEISQDTSVRDVMRTFLVSVNLQTRILHVRQLLYEYDISVIPVMDEGRFVGVVGLDELMAIIKSFYNLARGEPKRHTPLKYVIVADAIRMRPPVVTPDASLAEAAEKMLEKRYRAVVVVDSEKPVGFTSGLELANFLLTKKSS” the “soluble on expression in E. coli” value was “not soluble”.
With “MSLAPANGLRIYALGGISEIGRNMTVFEYNNRLLIVDCGVLFPSSGEPGVDLILPDFGPIEDHLHRVDALVVTHGHEDHIGAIPWLLKLRNDIPILASRFTLALIAAKCKEHRQRPKLIEVNEQSNEDRGPFNIRFWAVNHSIPDCLGLAIKTPAGLVIHTGDIKLDQTPPDGRPTDLPALSRFGDEGVDLMLCDSTNATTPGVSGSEADVAPTLKRLVGDAKQRVILASFASNVYRVQAAVDAAVASNRKVAFNGRSMIRNMEIAEKLGYLKAPRGTIISMDDASRMAPHKVMLITTGTQGEPMAALSRMARREHRQITVRDGDLIILSSSLVPGNEEAVFGVINMLAQIGATVVTGRDAKVHTSGHGYSGELLFLYNAARPKNAMPVHGEWRHLRANKELAISTGVNRDNVVLAQNGVVVDMVNEGHHHHHH” the “soluble on expression in E. coli” value was “soluble”.
In the case of “WSKIEKEQFYIAICAMNKTIAQKLFVLMKKAKKWLLQPDVRELKRFSIIDQKQLIYSYLIYHKINVNGEKIDAILDFIQPSQQKQYRLQNDIFLMVKNQCLALLYK”, the “soluble on expression in E. coli” value was “soluble”.
With “MGSDKIHHHHHHMIILGIHDGHDAGAVLLNDEEIYAVNEERLNRVKKYRGFPELSIRKVLEMSGTEPDDVDVIAIAGLFRRQKRLLELEHKLKSIFGPKFKEKAIFVEHHLAHASSAYYSSGLRDAVVLTIDAAGDGLSSTVSIAKDGQMFRIAQSTYIDSLGDFYASVTELLGFKPMRHEGKVMSLAAYGNPRYELSAIIELNGLTFENKLKVIGTEATKKLAEFFEFPLEKAKEVSSNLKRGIMDNELEKKAIEIAASAQAHLERLIEEMGLELKKYELPIAYAGGVAQNVKANAILRRIFGDIWIFPAMDDAGLAFGAAIYVKAQMELLFGKWKPFKLKHVFLGPSYSPEEIEEILKREGLEYEEVDVPSFVADSLVEGKLVGLFQGRLEYGPRALGNRSILADPRNEKVREKLNLALRRDVFQPFAPSILEERFPDYIEDLTGEPNRFMTMSYLASEEFMEVAPAVVHIDGTTRPQSVPKDLGTYYKIIRRFEKRTGVGAVLNTSFNMHGEPIVCSPLDAIRTAKSAKLDVLLLERFGVYIV” the “soluble on expression in E. coli” value was “not soluble”.
